Experimental data: US20050106647A1
Where two headings read alike, the source gives them in different places.

Experiments:
[1] = target: PA-BODIPY conjugate (Bacillus anthracis protective antigen conjugated to BODIPY FL) (Bacillus anthracis) (UniProt P13423)
[2] = target: PA-BODIPY conjugate (Bacillus anthracis protective antigen conjugated to BODIPY FL) (Bacillus anthracis) (UniProt P13423); remark: listed apart in the source

Chain of PA-BODIPY conjugate (Bacillus anthracis protective antigen conjugated to BODIPY FL) (Bacillus anthracis) (P13423 30-764 limits assumed): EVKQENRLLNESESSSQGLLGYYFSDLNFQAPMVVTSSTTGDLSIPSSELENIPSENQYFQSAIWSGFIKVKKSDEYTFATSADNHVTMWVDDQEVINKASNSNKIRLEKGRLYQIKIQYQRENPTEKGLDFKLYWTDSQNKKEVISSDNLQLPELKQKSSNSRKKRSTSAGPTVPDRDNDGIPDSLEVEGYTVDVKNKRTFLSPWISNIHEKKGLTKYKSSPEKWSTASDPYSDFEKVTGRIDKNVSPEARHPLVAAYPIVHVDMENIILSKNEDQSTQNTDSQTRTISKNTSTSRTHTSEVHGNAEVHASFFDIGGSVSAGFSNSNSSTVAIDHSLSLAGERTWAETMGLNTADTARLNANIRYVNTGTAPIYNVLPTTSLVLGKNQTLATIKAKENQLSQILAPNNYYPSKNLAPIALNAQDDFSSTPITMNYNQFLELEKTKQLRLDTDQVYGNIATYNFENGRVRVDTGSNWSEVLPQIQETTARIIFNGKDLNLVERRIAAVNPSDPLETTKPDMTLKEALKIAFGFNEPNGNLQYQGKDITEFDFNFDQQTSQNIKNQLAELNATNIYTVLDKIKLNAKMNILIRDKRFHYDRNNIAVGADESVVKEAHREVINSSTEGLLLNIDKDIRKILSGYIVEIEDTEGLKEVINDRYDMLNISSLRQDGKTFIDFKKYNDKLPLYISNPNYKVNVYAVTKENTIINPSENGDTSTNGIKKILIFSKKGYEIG
Chain of NlpA-[Dig scFv] (26-10 anti-digoxin/digoxigenin scFv) fusion anchored on the E. coli inner membrane (P04846 whole entry, looked up, the tested form may be a part): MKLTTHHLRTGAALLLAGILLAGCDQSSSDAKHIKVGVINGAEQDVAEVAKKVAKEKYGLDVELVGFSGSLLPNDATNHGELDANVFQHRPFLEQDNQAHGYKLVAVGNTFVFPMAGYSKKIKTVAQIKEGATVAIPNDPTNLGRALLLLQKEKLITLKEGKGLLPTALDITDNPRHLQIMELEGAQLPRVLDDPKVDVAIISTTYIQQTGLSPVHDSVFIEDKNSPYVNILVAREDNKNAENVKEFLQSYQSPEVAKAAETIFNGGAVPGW
Chain of 26-10 anti-digoxin/digoxigenin scFv-g3p fusion (pAK200) (P69168 268-424): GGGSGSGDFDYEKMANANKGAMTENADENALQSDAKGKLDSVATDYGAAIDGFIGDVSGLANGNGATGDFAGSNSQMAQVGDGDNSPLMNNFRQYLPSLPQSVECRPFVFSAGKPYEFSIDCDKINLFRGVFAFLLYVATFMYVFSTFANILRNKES

Substance	mean fluorescence (M) [1]	mean fluorescence (M) [2]
NlpA-[Dig scFv] (26-10 anti-digoxin/digoxigenin scFv) fusion anchored on the E. coli inner membrane (from UniProt P04846 24-29)	2.97	4.48
26-10 anti-digoxin/digoxigenin scFv-g3p fusion (pAK200) (from UniProt P69168 268-424)	–	7.25
